Data as given in paper PMC12749725 (Nature Communications, 2025).
Substitutions are numbered along the chain they refer to. Names may count otherwise. “And” between values parts separate entries of the source, which are not always exact repeats. Equal values may be shown once.

Experiments:
[1] = molecular target: the molecule itself; assay: SEC
[2] = molecular target: the molecule itself; assay: SEC; remark: listed apart in the source
[3] = molecular target: T1, BAI3_eCUB^253 (C-terminal extended CUB domain of BAI3, aa. 25-253) (human, UniProt O60242 25-253); assay: ITC
T1 sequence (looked up): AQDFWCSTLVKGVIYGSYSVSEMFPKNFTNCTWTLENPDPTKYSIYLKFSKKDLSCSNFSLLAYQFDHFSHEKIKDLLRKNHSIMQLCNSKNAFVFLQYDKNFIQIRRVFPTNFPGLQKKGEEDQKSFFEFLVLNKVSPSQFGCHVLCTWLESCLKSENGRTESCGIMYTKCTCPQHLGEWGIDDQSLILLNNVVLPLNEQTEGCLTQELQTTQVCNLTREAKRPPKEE

[4] = molecular target: the molecule itself; assay: SEC-MALS
[5] = molecular target: T2, BAI3 extracellular domain (ECD) (human, UniProt O60242 25-880); assay: ITC
T2 sequence (looked up): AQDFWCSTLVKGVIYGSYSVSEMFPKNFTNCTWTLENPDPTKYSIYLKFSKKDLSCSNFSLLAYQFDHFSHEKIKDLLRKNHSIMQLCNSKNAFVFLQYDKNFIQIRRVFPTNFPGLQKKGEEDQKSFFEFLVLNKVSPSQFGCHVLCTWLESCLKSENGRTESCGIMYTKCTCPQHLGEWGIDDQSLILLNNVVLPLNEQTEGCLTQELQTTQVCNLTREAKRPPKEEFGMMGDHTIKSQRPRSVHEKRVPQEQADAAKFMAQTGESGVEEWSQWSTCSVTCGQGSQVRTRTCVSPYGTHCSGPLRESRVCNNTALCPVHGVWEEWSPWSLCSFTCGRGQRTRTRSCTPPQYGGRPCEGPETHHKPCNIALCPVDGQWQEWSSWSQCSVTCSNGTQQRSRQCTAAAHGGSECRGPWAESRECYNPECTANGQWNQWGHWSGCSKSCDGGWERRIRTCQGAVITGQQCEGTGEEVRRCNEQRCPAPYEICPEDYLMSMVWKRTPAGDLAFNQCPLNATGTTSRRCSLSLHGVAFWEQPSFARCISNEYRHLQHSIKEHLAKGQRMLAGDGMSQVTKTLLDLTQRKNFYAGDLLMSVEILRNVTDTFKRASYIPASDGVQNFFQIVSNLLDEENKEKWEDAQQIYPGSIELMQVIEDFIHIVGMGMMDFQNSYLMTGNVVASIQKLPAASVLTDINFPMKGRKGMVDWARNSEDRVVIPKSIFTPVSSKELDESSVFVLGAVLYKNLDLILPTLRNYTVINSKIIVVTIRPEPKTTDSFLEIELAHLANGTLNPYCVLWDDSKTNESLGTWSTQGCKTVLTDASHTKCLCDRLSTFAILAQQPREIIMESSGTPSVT

B1: full-length C1ql1, bacteria-expressed (without signal peptide) (natural protein, mouse, UniProt O88992 17-258, looked up)
chain: GPDGHYEMLGTCRMVCDPYPARGPGAGARSDGGDALSEQSGAPPPSTLVQGPQGKPGRTGKPGPPGPPGDRGPPGPVGPPGEKGEPGKPGPPGLPGSGGSGAISTATYTTVPRVAFYAGLKNPHEGYEVLKFDDVVTNLGNNYDAASGKFTCNIPGTYFFTYHVLMRGGDGTSMWADLCKNGQVRASAIAQDADQNYDYASNSVILHLDAGDEVFIKLDGGKAHGGNSNKYSTFSGFIIYSD
Question: For B1, which “stoichiometry N” value [1] is on record?
Answer: Its value is 6 and 3.

B2: C1ql1_gC1q D208N (domain or fragment, mouse)
chain: TTVPRVAFYAGLKNPHEGYEVLKFDDVVTNLGNNYDAASGKFTCNIPGTYFFTYHVLMRGGDGTSMWADLCKNGQVRASAIAQNADQNYDYASNSVILHLDAGDEVFIKLDGGKAHGGNSNKYSTFSGFIIYSD
Question: Does B2 bind [2]?
Answer: Result: binds

Question: And the “fold weaker binding than wild type” value [3]?
Answer: Its value is about 9 fold.

B3: C1ql1_gC1q A209S (domain or fragment, mouse)
chain: B2 chain with N84D, A85S
Question: Does B3 bind [3]?
Answer: Result: binds

B4: C1ql1_gC1q D214N (domain or fragment, mouse)
chain: B2 chain with N84D, D90N
Question: Does B4 bind [3]?
Answer: Result: binds

B5: C1ql1_gC1q D210N (domain or fragment, mouse)
chain: B2 chain with N84D, D86N
Question: Does B5 bind [3]?
Answer: Result: binds

B6: C1ql1_gC1q (globular C1q domain of mouse C1ql1), wild type (domain or fragment)
chain: ATYTTVPRVAFYAGLKNPHEGYEVLKFDDVVTNLGNNYDAASGKFTCNIPGTYFFTYHVLMRGGDGTSMWADLCKNGQVRASAIAQDADQNYDYASNSVILHLDAGDEVFIKLDGGKAHGGNSNKYSTFSGFIIYSD
Question: For B6, which “stoichiometry N” value [4] is on record?
Answer: Its value is 6 and 3.

Question: And the Kd [5]?
Answer: Its Kd is about 1100 nM.

Question: What about the Kd [3] of the same binder?
Answer: Its Kd is about 150 nM.

Question: And the “stoichiometry N” value [3]?
Answer: The value was 3 eCUB molecules per gC1q trimer.
